# Data taken from US20140087995A1 (published 2014).
# Numbered stars: 1 amine (or outer) side, 2 acyl side, 3 side chain; on linkers, the order of the positions; unused ones are H or OH. Bridge positions count the residues as written; N and C are the ends. Side chains are listed from the residue outwards. Ends that are not written are not given here. * marks the point of attachment. C20 diacid = O=C(O)CCCCCCCCCCCCCCCCCCC(=O)*; γGlu = O=C(O)[C@H](CCC(=O)[*:2])N[*:1]; AEEA = NCCOCCOCC(=O)O
# T1: human calcitonin receptor (human, UniProt P30988 25-474)
# T1 construct: whole, on cells; Membranes of a stably transfected BHK cell line (Assay VII); also called hCTR; hCT
# T1 sequence (looked up): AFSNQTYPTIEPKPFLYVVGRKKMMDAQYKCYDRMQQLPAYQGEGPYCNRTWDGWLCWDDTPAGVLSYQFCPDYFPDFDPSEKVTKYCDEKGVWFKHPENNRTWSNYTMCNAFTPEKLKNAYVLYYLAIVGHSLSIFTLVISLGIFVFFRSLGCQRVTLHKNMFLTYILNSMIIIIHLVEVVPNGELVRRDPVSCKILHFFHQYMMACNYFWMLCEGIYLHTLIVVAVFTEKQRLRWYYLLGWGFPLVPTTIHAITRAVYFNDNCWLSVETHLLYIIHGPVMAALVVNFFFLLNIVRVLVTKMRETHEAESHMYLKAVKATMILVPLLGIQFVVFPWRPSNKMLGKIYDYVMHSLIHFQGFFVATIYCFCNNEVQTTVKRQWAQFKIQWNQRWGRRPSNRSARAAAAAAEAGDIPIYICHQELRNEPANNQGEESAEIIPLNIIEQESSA
# T2: rat calcitonin receptor (rat, UniProt P32214 25-516)
# T2 construct: whole, on cells; Membranes of transiently transfected BHK tk'ts 13 cells (Assay VIII); also called rCTR
# T2 sequence (looked up): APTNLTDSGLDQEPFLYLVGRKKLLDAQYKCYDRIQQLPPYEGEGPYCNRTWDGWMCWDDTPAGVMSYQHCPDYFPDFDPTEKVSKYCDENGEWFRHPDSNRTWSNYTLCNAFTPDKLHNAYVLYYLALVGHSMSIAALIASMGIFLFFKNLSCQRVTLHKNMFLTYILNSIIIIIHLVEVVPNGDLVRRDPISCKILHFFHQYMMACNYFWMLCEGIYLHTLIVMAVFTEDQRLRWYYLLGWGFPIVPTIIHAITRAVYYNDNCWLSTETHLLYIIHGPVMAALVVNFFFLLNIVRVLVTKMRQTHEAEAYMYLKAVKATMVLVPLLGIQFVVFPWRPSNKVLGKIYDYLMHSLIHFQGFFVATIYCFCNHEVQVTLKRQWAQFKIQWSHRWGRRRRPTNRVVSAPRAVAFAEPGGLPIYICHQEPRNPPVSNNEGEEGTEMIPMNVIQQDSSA
# T3: rat amylin receptor (rat calcitonin receptor + rat RAMP 3) (rat, UniProt P32214 25-516; Q9JJ73 23-147)
# T3 construct: whole, on cells; Membranes of transiently transfected BHK tk'ts 13 cells (Assay VI); also called rAmylin-R; rat amylin 3(a) receptor
# T3 sequence (looked up) 1: T2 sequence (looked up)
# T3 sequence (looked up) 2: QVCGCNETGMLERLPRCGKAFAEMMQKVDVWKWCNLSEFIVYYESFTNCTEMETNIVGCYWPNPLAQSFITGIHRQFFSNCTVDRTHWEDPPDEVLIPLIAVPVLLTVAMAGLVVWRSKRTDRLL
# B1: N^ε1-[2-[2-[2-(19-carboxynonadecanoylamino)ethoxy]ethoxy]acetyl]-[Arg17,Pro21,Pro27,His34]-h-amylin (peptide)
# peptide: K([AEEA-C20 diacid])CNTATCATQRLANFLRHSSPNFGAIPSSTNVGHNTY-NH2
# modifications: disulfide 2-7; N-terminus assumed
# SMILES: CC[C@H](C)[C@H](NC(=O)[C@H](C)NC(=O)CNC(=O)[C@H](Cc1ccccc1)NC(=O)[C@H](CC(N)=O)NC(=O)[C@@H]1CCCN1C(=O)[C@H](CO)NC(=O)[C@H](CO)NC(=O)[C@H](Cc1c[nH]cn1)NC(=O)[C@H](CCCNC(=N)N)NC(=O)[C@H](CC(C)C)NC(=O)[C@H](Cc1ccccc1)NC(=O)[C@H](CC(N)=O)NC(=O)[C@H](C)NC(=O)[C@H](CC(C)C)NC(=O)[C@H](CCCNC(=N)N)NC(=O)[C@H](CCC(N)=O)NC(=O)[C@@H](NC(=O)[C@H](C)NC(=O)[C@@H]1CSSC[C@H](NC(=O)[C@@H](N)CCCCNC(=O)COCCOCCNC(=O)CCCCCCCCCCCCCCCCCCC(=O)O)C(=O)N[C@@H](CC(N)=O)C(=O)N[C@@H]([C@@H](C)O)C(=O)N[C@@H](C)C(=O)N[C@@H]([C@@H](C)O)C(=O)N1)[C@@H](C)O)C(=O)N1CCC[C@H]1C(=O)N[C@@H](CO)C(=O)N[C@@H](CO)C(=O)N[C@H](C(=O)N[C@@H](CC(N)=O)C(=O)N[C@H](C(=O)NCC(=O)N[C@@H](Cc1c[nH]cn1)C(=O)N[C@@H](CC(N)=O)C(=O)N[C@H](C(=O)N[C@@H](Cc1ccc(O)cc1)C(N)=O)[C@@H](C)O)C(C)C)[C@@H](C)O
# notes: also called compound 91
# B2: N^ε1-[2-[2-[2-[[2-[2-[2-[[(4S)-4-carboxy-4-(19-carboxynonadecanoylamino)butanoyl]amino]ethoxy]ethoxy]acetyl]amino]ethoxy]ethoxy]acetyl]-[Arg17,Pro21,Pro27,Arg34 … (peptide)
# peptide: K([AEEA-AEEA-γGlu-C20 diacid])CNTATCATQRLANFLRHSSPNFGAIPSSTNVGRNTY-NH2
# modifications: disulfide 2-7; N-terminus assumed
# SMILES: CC[C@H](C)[C@H](NC(=O)[C@H](C)NC(=O)CNC(=O)[C@H](Cc1ccccc1)NC(=O)[C@H](CC(N)=O)NC(=O)[C@@H]1CCCN1C(=O)[C@H](CO)NC(=O)[C@H](CO)NC(=O)[C@H](Cc1c[nH]cn1)NC(=O)[C@H](CCCNC(=N)N)NC(=O)[C@H](CC(C)C)NC(=O)[C@H](Cc1ccccc1)NC(=O)[C@H](CC(N)=O)NC(=O)[C@H](C)NC(=O)[C@H](CC(C)C)NC(=O)[C@H](CCCNC(=N)N)NC(=O)[C@H](CCC(N)=O)NC(=O)[C@@H](NC(=O)[C@H](C)NC(=O)[C@@H]1CSSC[C@H](NC(=O)[C@@H](N)CCCCNC(=O)COCCOCCNC(=O)COCCOCCNC(=O)CC[C@H](NC(=O)CCCCCCCCCCCCCCCCCCC(=O)O)C(=O)O)C(=O)N[C@@H](CC(N)=O)C(=O)N[C@@H]([C@@H](C)O)C(=O)N[C@@H](C)C(=O)N[C@@H]([C@@H](C)O)C(=O)N1)[C@@H](C)O)C(=O)N1CCC[C@H]1C(=O)N[C@@H](CO)C(=O)N[C@@H](CO)C(=O)N[C@H](C(=O)N[C@@H](CC(N)=O)C(=O)N[C@H](C(=O)NCC(=O)N[C@@H](CCCNC(=N)N)C(=O)N[C@@H](CC(N)=O)C(=O)N[C@H](C(=O)N[C@@H](Cc1ccc(O)cc1)C(N)=O)[C@@H](C)O)C(C)C)[C@@H](C)O
# notes: also called compound 95
# B3: N^ε1-[2-[2-[2-(19-carboxynonadecanoylamino)ethoxy]ethoxy]acetyl]-[His14,Arg17,Pro21,Pro27]-h-amylin (peptide)
# peptide: K([AEEA-C20 diacid])CNTATCATQRLAHFLRHSSPNFGAIPSSTNVGSNTY-NH2
# modifications: disulfide 2-7; N-terminus assumed
# SMILES: CC[C@H](C)[C@H](NC(=O)[C@H](C)NC(=O)CNC(=O)[C@H](Cc1ccccc1)NC(=O)[C@H](CC(N)=O)NC(=O)[C@@H]1CCCN1C(=O)[C@H](CO)NC(=O)[C@H](CO)NC(=O)[C@H](Cc1c[nH]cn1)NC(=O)[C@H](CCCNC(=N)N)NC(=O)[C@H](CC(C)C)NC(=O)[C@H](Cc1ccccc1)NC(=O)[C@H](Cc1c[nH]cn1)NC(=O)[C@H](C)NC(=O)[C@H](CC(C)C)NC(=O)[C@H](CCCNC(=N)N)NC(=O)[C@H](CCC(N)=O)NC(=O)[C@@H](NC(=O)[C@H](C)NC(=O)[C@@H]1CSSC[C@H](NC(=O)[C@@H](N)CCCCNC(=O)COCCOCCNC(=O)CCCCCCCCCCCCCCCCCCC(=O)O)C(=O)N[C@@H](CC(N)=O)C(=O)N[C@@H]([C@@H](C)O)C(=O)N[C@@H](C)C(=O)N[C@@H]([C@@H](C)O)C(=O)N1)[C@@H](C)O)C(=O)N1CCC[C@H]1C(=O)N[C@@H](CO)C(=O)N[C@@H](CO)C(=O)N[C@H](C(=O)N[C@@H](CC(N)=O)C(=O)N[C@H](C(=O)NCC(=O)N[C@@H](CO)C(=O)N[C@@H](CC(N)=O)C(=O)N[C@H](C(=O)N[C@@H](Cc1ccc(O)cc1)C(N)=O)[C@@H](C)O)C(C)C)[C@@H](C)O
# notes: also called compound 90
# B4: N^ε1-[2-[2-[2-[[2-[2-[2-[[(4S)-4-carboxy-4-(19-carboxynonadecanoylamino)butanoyl]amino]ethoxy]ethoxy]acetyl]amino]ethoxy]ethoxy]acetyl]-[Arg17,Pro21,Pro27,His34 … (peptide)
# peptide: K([AEEA-AEEA-γGlu-C20 diacid])CNTATCATQRLANFLRHSSPNFGAIPSSTNVGHNTY-NH2
# modifications: disulfide 2-7; N-terminus assumed
# SMILES: CC[C@H](C)[C@H](NC(=O)[C@H](C)NC(=O)CNC(=O)[C@H](Cc1ccccc1)NC(=O)[C@H](CC(N)=O)NC(=O)[C@@H]1CCCN1C(=O)[C@H](CO)NC(=O)[C@H](CO)NC(=O)[C@H](Cc1c[nH]cn1)NC(=O)[C@H](CCCNC(=N)N)NC(=O)[C@H](CC(C)C)NC(=O)[C@H](Cc1ccccc1)NC(=O)[C@H](CC(N)=O)NC(=O)[C@H](C)NC(=O)[C@H](CC(C)C)NC(=O)[C@H](CCCNC(=N)N)NC(=O)[C@H](CCC(N)=O)NC(=O)[C@@H](NC(=O)[C@H](C)NC(=O)[C@@H]1CSSC[C@H](NC(=O)[C@@H](N)CCCCNC(=O)COCCOCCNC(=O)COCCOCCNC(=O)CC[C@H](NC(=O)CCCCCCCCCCCCCCCCCCC(=O)O)C(=O)O)C(=O)N[C@@H](CC(N)=O)C(=O)N[C@@H]([C@@H](C)O)C(=O)N[C@@H](C)C(=O)N[C@@H]([C@@H](C)O)C(=O)N1)[C@@H](C)O)C(=O)N1CCC[C@H]1C(=O)N[C@@H](CO)C(=O)N[C@@H](CO)C(=O)N[C@H](C(=O)N[C@@H](CC(N)=O)C(=O)N[C@H](C(=O)NCC(=O)N[C@@H](Cc1c[nH]cn1)C(=O)N[C@@H](CC(N)=O)C(=O)N[C@H](C(=O)N[C@@H](Cc1ccc(O)cc1)C(N)=O)[C@@H](C)O)C(C)C)[C@@H](C)O
# notes: also called compound 97
# Target: T1, human calcitonin receptor
# Assay: ratio IC50 human calcitonin receptor / IC50 human amylin receptor (reference)
# Description: The resulting pellet was resuspended, homogenized and centrifuged (20.000 rpm, 15 min) in a buffer containing 20 mM Na-HEPES and 0.1 mM EDTA (pH 7.4, buffer 2). The resulting pellet was resuspended in buffer 2 and protein concentration was measured (BCA protein Assay, Pierce). The homogenate was kept cold during the whole procedure. The membranes were kept at −80° C. until use. The assay was performed in a 384 well Optiplate (PerkinElmer) in a total volume of 40 ul. Membranes were mixed with SPA beads. Final concentration of membranes 35 ng/μL final and SPA beads was 0.05 mg/well. Test-compounds were dissolved in DMSO and further diluted in assay buffer (50 mM Hepes, pH 7.4, 1 mM CaCl2, 5 mM MgCl₂, 0.1% OA and 0.02% Tween20). […] The final mixture was incubated with shaking at 400 rpm for 120 min at 25° C. prior to centrifugation (1500 rpm, 10 min). Samples were analyzed on TopCounter™ (Packard). The IC₅₀ was calculated using (one site binding competition analysis) GraphPad Prism5 as a measure of receptor affinity.
# Membranes were prepared in the following way; the cells were rinsed with PBS and incubated with Versene for approximately 5 min before harvesting. The cells were flushed with PBS and the cell-suspension was centrifuged for 5 min at 1000 rpm. Cells were homogenized (Ultrathurrax) in a buffer containing 20 mM Na-HEPES and 10 mM EDTA (pH 7.4) and centrifuged at 20.000 rpm for 15 min. The resulting pellet was resuspended, homogenized and centrifuged (20.000 rpm, 15 min) in a buffer containing 20 mM Na-HEPES and 0.1 mM EDTA (pH 7.4, buffer 2). The resulting pellet was resuspended in buffer 2 and protein concentration was measured (BCA protein Assay, Pierce). The homogenate was kept cold during the whole procedure. The membranes were kept at −80° C. until use. Assay was performed in a 384 well Optiplate (PerkinElmer) in a total volume of 40 ul. Membranes were mixed with SPA beads.
row,Ratio hCT/hAmylin binding,Binder
1,101,B1
2,63.4,B2
3,42.2,B3
4,104,B4

# Target: T2, rat calcitonin receptor
# Assay: ratio IC50 rat calcitonin receptor / IC50 rat amylin receptor (reference)
row,Ratio rCT/rAmylin binding,Binder
1,76.3,B1
2,71.3,B2
3,74.1,B3
4,71.1,B4

# Target: T3, rat amylin receptor (rat calcitonin …)
# Assay: SPA competition with 125I-rat amylin, membranes of BHK cells with rat calcitonin receptor + rat RAMP3 (Assay VI)
row,IC50,Binder
1,0.386 nM,B1
2,5.45 nM,B2
3,0.246 nM,B3
4,2.24 nM,B4

# Target: T2, rat calcitonin receptor
# Assay: SPA competition with 125I-calcitonin, membranes of BHK cells with rat calcitonin receptor (Assay VIII)
row,IC50,Binder
1,29.4 nM,B1
2,388 nM,B2
3,18.2 nM,B3
4,159 nM,B4
